Measured values taken from paper PMC11307329.

Tested on: T1, XisF4 (native excisionase) (Pseudomonas aeruginosa PAO1), ORF:74e9b1d3
T1 sequence: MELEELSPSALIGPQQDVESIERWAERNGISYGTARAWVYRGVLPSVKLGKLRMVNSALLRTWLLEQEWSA
Assay: EMSA

Row | Sequence | binding
1 | CGCGCAGACTGTATCGAAGTATTTCCGACGCCTGGCGTTCTGTGATCGATTCGGCTCGGTTGGAGTGCGCTGCCGCACGCTTTACAGCCGGACGGAGCGGGGCACCGGATCTACTGCAAAAGCTGATAGTTGTCTTCCCGGGTGACGGCGTTGCACGGTCCTGCGGCGTGCAACCCGGCCTGGGCGAAATACCGGCGGAGCGGACCAGGCTATCCCGTCGGAGGCGATGTCGCCGGGCTGCTGGCTTTCAAGGTTTCCCTTCGATGACCAGGAGCTACCCATG (double strand) [lasA promoter] | binds
2 | GCTCATTCCGTCACTATTCGTGGCATTAGCCATACGCAGCTAGAGAAATAATTACCCTGGAGAAATTATTTCCCCAAAGCCACGTCAGGGCAACTATTTCCCCGGAATAAATTTCTATATGAGCACGTCAGCCGATAGAGCAAGACTATTAATCAAGAAAATCGGCCCCAAAAAGGTCAGCCTTCACGGGGGCGATTACGAGAGATGGAAAAGCGTCAGCAAAGGCGCGATTCGCGTGAGCACGGAAGAAATCGACGTCCTAGTAAAAATTTTCCCTAATTACGCATTATGGATTGCAAG (double strand) [xisF4 promoter] | binds
3 | AGCTTTCATGAATCTCTCCGTTGATTATGTATAGGCCTAACGCCTGAACCTCAACAAGCACTTACCATGCCAAATATCAAACCGCGCCACGATCAAGGAAACTGGGTTCCTTTCTCGATGAGAGTCAAACTTAAAACGGACAGGATGTGACATTTTTTGACAGCTGGATTTCCTCGATTTGGCAGCCCCTGTTATCTGCGTTATAAGGCACCTCAATAGCCCTTCTGCGATTCCTTCCCCATG (double strand) [pilA promoter] | binds
4 | CGGTCGCCTTGTTCATGAGAAAAGCCTTTTAAAACAGTGAGTTGCGCAATAATTTCAGCCGTACCTCTTTCGAGGTAGGGGCGCGCATCTAGGCACGGAACGGCCGGTATTTCATTGATTCCTATCAAATTTGCATAGGAACACCTTCCCTAGGCTCTCGCTGAACGCTGTCCGTGCAGAGAGTTTAGCC (double strand) [narL promoter] | binds
